Results on 9 molecules are retold here after patent publication US20260226180A1 (BIOCYTOGEN PHARMACEUTICALS BEIJING, published 2026).

For assay [1], the target named is T1, human IL2RA expressed on CHO-S cells (CHO-S-hIL2RA cells) (human, UniProt P01589 22-272).
T1 sequence: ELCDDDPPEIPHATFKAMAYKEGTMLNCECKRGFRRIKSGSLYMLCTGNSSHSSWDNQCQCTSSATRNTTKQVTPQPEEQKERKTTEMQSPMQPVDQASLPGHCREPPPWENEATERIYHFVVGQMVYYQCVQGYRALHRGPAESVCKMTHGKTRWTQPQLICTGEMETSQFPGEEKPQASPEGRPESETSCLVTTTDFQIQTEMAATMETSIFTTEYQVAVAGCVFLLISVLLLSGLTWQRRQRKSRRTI
As to the kind of experiment: flow cytometry on CHO-S cells expressing the target, anti-human IgG Fc secondary. A general note: In flow cytometry, cells or beads pass a laser one at a time.
Method: (§1) CHO-S-hIL2RA cells or CHO-S-fasIL2RA cells were plated in a 96-well plate at a density of 2×10⁵ cells/well. Serially diluted purified anti-IL2RA antibodies (maximum concentration: 9 μg/mL, 2-fold dilutions, 11 gradients) were added to each well and were incubated at 4° C. for 30 minutes.
(§2) The cells were collected, and the mean fluorescence intensity (MFI) was determined. A fitting curve was obtained using Log(antibody concentration (μg/mL)) as the X-axis and mean MFI as the Y-axis.

Assay [2] deals with T2, monkey (Macaca fascicularis) IL2RA expressed on CHO-S cells (CHO-S-fasIL2RA cells) (monkey (Macaca fascicularis), UniProt Q5MNY4 22-272).
T2 chain: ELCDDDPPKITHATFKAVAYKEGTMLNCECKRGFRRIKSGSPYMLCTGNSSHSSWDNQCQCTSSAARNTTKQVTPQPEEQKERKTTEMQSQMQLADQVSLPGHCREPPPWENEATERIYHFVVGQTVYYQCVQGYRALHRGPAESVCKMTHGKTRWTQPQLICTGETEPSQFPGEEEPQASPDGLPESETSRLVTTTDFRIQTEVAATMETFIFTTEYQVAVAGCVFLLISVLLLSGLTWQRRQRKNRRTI
The description is as above.
Method: as §1, §2

The target of assay [3] is T3, His-tagged human IL2RA protein (hIL2RA-his, ACROBiosystems Inc., Cat #: ILA-H52H9) (human, UniProt P01589 22-213, limits assumed).
T3 construct: Bought protein; the soluble protein is most likely only an extracellular part of it; not shown: His tag
T3 sequence: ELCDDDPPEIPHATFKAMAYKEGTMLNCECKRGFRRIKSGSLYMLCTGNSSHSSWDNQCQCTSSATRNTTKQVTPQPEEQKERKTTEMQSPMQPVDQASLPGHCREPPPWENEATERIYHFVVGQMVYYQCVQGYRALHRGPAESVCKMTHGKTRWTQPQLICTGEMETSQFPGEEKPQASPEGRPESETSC
Put plainly: SPR (Biacore 8K), antibody captured on Protein A chip, His-tagged antigen as analyte, 1:1 fit.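 Note: antibodies captured at about 150 RU, antigen injected as a titration series, dissociation phase recorded over 400 s.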 On the technique in general: In SPR one partner is held on a chip, and binding of the other changes the refractive index at the surface.

The target of assay [4] is T4, His-tagged recombinant monkey (Cynomolgus monkey, Macaca fascicularis) IL2RA protein (cynoIL2RA-his, Sino … (Cynomolgus monkey (Macaca fascicularis), UniProt Q5MNY4 22-213 (rhesus entry))).
T4 construct: Bought protein; the soluble protein is most likely only an extracellular part of it; not shown: His tag
T4 chain: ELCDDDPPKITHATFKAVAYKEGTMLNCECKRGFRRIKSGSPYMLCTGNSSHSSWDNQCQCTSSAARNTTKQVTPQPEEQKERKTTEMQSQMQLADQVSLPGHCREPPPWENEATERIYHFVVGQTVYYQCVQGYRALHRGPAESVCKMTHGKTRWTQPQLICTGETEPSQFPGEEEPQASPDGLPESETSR
The assay is described as above.

Assay [5] concerns the target T1, human IL2RA expressed on CHO-S cells …. As to the kind of experiment: flow cytometry blocking assay on CHO-S-hIL2RA cells; blocked ligand: biotinylated human IL-2 at 2.5 µg/mL, detected with APC streptavidin.
Method: (§3) CHO-S-hIL2RA cells were seeded in a 96-well plate (cell density 2×10⁵ cells/well) and incubated at 37° C. overnight. […] The above 96-well plate was incubated at 4° C. for 20 minutes.
(§4) The mean fluorescence intensity (MFI) was determined. A fitting curve was obtained using Log(antibody concentration (μg/mL)) or antibody concentration (μg/mL) as the X-axis and Log(mean MFI) or MFI as the Y-axis.
Assay [6] shares this target. Described as above. This is another data set of the same source.
Method: as §3, §4
The target of assay [7] is T4, His-tagged recombinant monkey …. As to the kind of experiment: SPR (Biacore 8K), antibody captured on Protein A chip, His-tagged antigen as analyte; "-" means no binding.
Method: Purified anti-IL2RA antibodies were diluted to 2 g/mL and then injected into the Biacore™ 8K biosensor at 10 L/min for about 50 seconds to achieve a desired protein density (e.g., about 150 response units (RU)). […] Dissociation was monitored for 400 seconds. The chip was regenerated after the last injection of each titration with glycine (pH 2.0, 30 L/min for 30 seconds).

Where two headings read alike, the source gives them in different places.

B1: anti-IL2RA antibody 7B5 (antibody, V domains shown)
VH: EVQLQQWGAGLLKPSETLSLTCAVYGGSFSGYYWNWIRQPPGKGLEWIGESDHSGSTHFNPSLKSRVTISLDTSKNQFSLKLNSVTAADTAVYFCARAPDYGDFDHWGQGILVTVSS
VL: DIQMTQSPDSLAVSLGERATINCRSSQSVLHSSTNKRYLAWYQQKPRQPPKLLIYWTSTRESGVPDRFSGSGSGTDFTLTISSLQAEDVAVYFCQQYYSTPYTFGQGTKLEIK
One may read the EC50 as the concentration at which the effect is half-maximal. The term Kd denotes the equilibrium constant for the complex coming apart. As usually defined, the koff is the first-order rate constant of dissociation. The kon is the rate constant with which the complex forms. In the case of B1, the concentration for a half-maximal effect (EC50) in assay [1] was determined as 0.411 µg/mL; in assay [2], 0.435 µg/mL. The Kd in assay [3] was determined as 6.35 nM; in assay [4] it was 24.6 nM. The koff amounted to 0.0143 s⁻¹ in assay [3] and 0.0258 s⁻¹ in assay [4]. Besides, the kon is 2.25e+06 M⁻¹ s⁻¹ in assay [3] and 1.05e+06 M⁻¹ s⁻¹ in assay [4].

B2: anti-IL2RA antibody 11C3 (antibody, human IgG1, V domains shown)
VH: QVQLVQSGAEVKKPGASVKVSCKASGYTFNSYYIHWVRQAPGQGLEWLGIINPTGGRTIYAQKFQGRVTMTRDTSTTTVDMELSSLRSEDTAVYYCARVPGYCKDTSCQDFYYYYGMDVWGQGSTVTVSS
VL: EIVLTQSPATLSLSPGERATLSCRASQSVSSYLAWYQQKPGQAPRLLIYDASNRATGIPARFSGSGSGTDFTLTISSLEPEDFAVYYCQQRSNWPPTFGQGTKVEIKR
As for B2, in assay [1], the EC50 came to 0.099 µg/mL. Moreover, a half-maximal effect in assay [2] (EC50) was put at 0.111 µg/mL. In assay [3], this molecule came in with a Kd of 0.266 nM, a koff of 9.42e-05 s⁻¹ and a kon of 354000 M⁻¹ s⁻¹. Besides, in assay [4], the Kd was found to be 0.528 nM, the koff worked out at 0.000166 s⁻¹ and the kon stood at 314000 M⁻¹ s⁻¹.

B3: Daclizumab analog (antibody, V domains shown)
VH: QVQLVQSGAEVKKPGSSVKVSCKASGYTFTSYRMHWVRQAPGQGLEWIGYINPSTGYTEYNQKFKDKATITADESTNTAYMELSSLRSEDTAVYVCARGGGVFDYWGQGTLVTVSS
VL: DIQMTQSPSTLSASVGDRVTITCSASSSISYMHWYQQKPGKAPKLLIYTTSNLASGVPARFSGSGSGTEFTLTISSLQPDDFATYYCHQRSTYPLTFGQGTKVEVK
notes: Daclizumab is described as a humanized monoclonal antibody
With B3, the figures for the “IC50 (read off the curve)” value in assay [5] and in assay [6] were about 4 µg/mL and about 0.6 µg/mL, respectively.

B4: anti-IL2RA antibody 14C2 (antibody, human IgG1, V domains shown)
VH: QVQLVQSGGGVVQPGRSLRLSCAASGFTFSTYGMHWVRQAPGKGLEWVAVISYDGSDKIYADSVKGRFTISRDNSKNTLFLQMNSLRAEDTAVYYCATGPMENYYYYNMDVWGLGTTVTVSS
VL: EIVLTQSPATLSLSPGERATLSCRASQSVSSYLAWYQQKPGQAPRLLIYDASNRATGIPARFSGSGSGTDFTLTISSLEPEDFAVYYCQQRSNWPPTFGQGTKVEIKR
In turn, B4 returned an EC50 in assay [1] of 0.093 µg/mL. Besides, the EC50 in assay [2] came to 0.088 µg/mL. Also, in assay [3], the Kd is 3.72 nM, the koff was found to be 0.000962 s⁻¹ and the kon was 258000 M⁻¹ s⁻¹. In assay [4], the Kd worked out at 53.1 nM, the koff turned out to be 0.0116 s⁻¹ and the kon came to 218000 M⁻¹ s⁻¹.

B5: anti-IL2RA antibody 11D2 (antibody, human IgG1, V domains shown)
VH: QVQLVQSGGGVVQPGRSLRLSCAASGFTFTNYAIHWVRQAPGKGLEWVAVIWSDGDNKYYADSVKGRFTISRDNSKNTLYLQMNSLRAEDTAVYYCARTPWYCTSTNCYTGYYYYGMDVWGQGTTVTVSS
VL: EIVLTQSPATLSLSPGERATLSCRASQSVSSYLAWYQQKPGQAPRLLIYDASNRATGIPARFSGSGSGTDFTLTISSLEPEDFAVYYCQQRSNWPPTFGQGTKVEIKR
As to B5, the EC50 in assay [1] came to 0.052 µg/mL; in assay [2] it was 0.039 µg/mL. Further, the Kd in assay [3] amounted to 1.27 nM; in assay [4], 2.53 nM. In addition, the koff is 0.000235 s⁻¹ in assay [3] and 0.000901 s⁻¹ in assay [4]. The kon in assay [3] was 185000 M⁻¹ s⁻¹; in assay [4], 356000 M⁻¹ s⁻¹.

B6: anti-IL2RA antibody 13F9 (antibody, human IgG1, V domains shown)
VH: QVQLVQSGAEVKRPGASVKVSCKASGYTFTTYAIHWVRQAPGQRLEWMGWINADNGYTKYSQNFQGRVTITRDTSASTAYMDLSTLRSEDTALYYCARTPRYCTSTSCSTGYYYYGMDVWGQGTTVTVSS
VL: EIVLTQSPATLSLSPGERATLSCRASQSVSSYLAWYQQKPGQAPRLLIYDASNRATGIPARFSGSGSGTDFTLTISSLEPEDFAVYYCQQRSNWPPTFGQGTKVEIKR
In the case of B6, the EC50 in assay [1] amounted to 0.326 µg/mL. The response in assay [2] was half-maximal at 0.275 µg/mL (EC50). In assay [3], this molecule returned a Kd of 0.655 nM, a koff of 2.11e-05 s⁻¹ and a kon of 32300 M⁻¹ s⁻¹. Moreover, in assay [4], the Kd was found to be 11.8 nM, the koff turned out to be 0.000447 s⁻¹ and the kon is 37800 M⁻¹ s⁻¹.

B7: RG6292 analog (antibody, V domains shown)
VH: QVQLVQSGAEVKKPGASVKVSCKASGYTFTSYYMHWVRQAPGQGLEWMGIINPSGGSTSYAQKFQGRVTMTRDTSTSTVYMELSSLRSEDTAVYYCARGGAEYIPAEYFQHWGQGTLVTVSS
VL: EIVMTQSPATLSLSPGERATLSCRASQSVSSYLAWYQQKPGQAPRLLIYDASNRATGIPARFSGSGSGTDFTLTISSLEPEDFAVYYCQQRPFLPTFGGGTKVEIK
notes: RG6292 is described as a human IgG1 monoclonal antibody
In assay [3], B7 showed a Kd of 43.8 nM, a koff of 0.00203 s⁻¹ and a kon of 46300 M⁻¹ s⁻¹. Besides, the binding result in assay [7] is on record as “no binding (tested: up to 200 nM antigen)”.

B8: anti-IL2RA antibody 5D9 (antibody, V domains shown)
VH: EVQLVESGGGLVQPGGSLRLSCAASGFTVSSNYMSWVRQTPGKGLELVSFIYSGGITSYADSVRGRFTISRDNSKNTLYLQMNSLRAEDTAVYYCARDDYSNYFDYWGQGTLVTVSS
VL: DIQMTQSPSSVSASVGDRVTITCRASQGISNWLAWYQQKPGKAPKLLIFAASSLQSGVPSRFSGSGSGTDFTLTISSLQPEDFATYYCQQAKSFPITFGQGTRLEIK
notes: Variable regions were cloned onto a human IgG constant region; also called 5D9-IgG1
On to B8, for which the EC50 in assay [1] is 0.47 µg/mL. The molecule further yielded an EC50 in assay [2] of 0.466 µg/mL. In assay [3], this molecule yielded a Kd of 5.14 nM, a koff of 0.00043 s⁻¹ and a kon of 83800 M⁻¹ s⁻¹. Also, in assay [4], the Kd was 271 nM, the koff was 0.0193 s⁻¹ and the kon stood at 71400 M⁻¹ s⁻¹.

B9: anti-IL2RA antibody 11C12 (antibody, human IgG1, V domains shown)
VH: QVQLVQSGGGLVQPGGSLRLSCSASGLTFSSYGMHWVRQAPGKGLDYVSGITNNGGRTEYADSVKGRFTISRDNSKNTLYLQMSSLRTEDTAVYYCVKEDWNGQYYYYAMDVWGQGTTVTVSS
VL: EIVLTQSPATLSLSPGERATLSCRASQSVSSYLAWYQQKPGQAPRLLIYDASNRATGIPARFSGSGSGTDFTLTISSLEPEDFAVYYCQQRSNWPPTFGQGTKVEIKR
notes: also called 1IC12
Consider B9, for which, in assay [1], the EC50 turned out to be 0.083 µg/mL. Further, it took 0.091 µg/mL to reach a half-maximal effect in assay [2] (EC50). In assay [3], binding was put at a Kd of 8.9 nM, the koff worked out at 0.00268 s⁻¹ and the kon was found to be 301000 M⁻¹ s⁻¹. In assay [4], the Kd is 118 nM, the koff was 0.0343 s⁻¹ and the kon was found to be 291000 M⁻¹ s⁻¹.
